B1: Protein ecdysoneless homolog (Homo sapiens), O95905 (parent)
chain: MEETMKLATMEDTVEYCLFLIPDESRDSDKHKEILQKYIERIITRFAPMLVPYIWQNQPFNLKYKPGKGGVPAHMFGVTKFGDNIEDEWFIVYVIKQITKEFPELVARIEDNDGEFLLIEAADFLPKWLDPENSTNRVFFCHGELCIIPAPRKSGAESWLPTTPPTIPQALNIITAHSEKILASESIRAAVNRRIRGYPEKIQASLHRAHCFLPAGIVAVLKQRPRLVAAAVQAFYLRDPIDLRACRVFKTFLPETRIMTSVTFTKCLYAQLVQQRFVPDRRSGYRLPPPSDPQYRAHELGMKLAHGFEILCSKCSPHFSDCKKSLVTASPLWASFLESLKKNDYFKGLIEGSAQYRERLEMAENYFQLSVDWPESSLAMSPGEEILTLLQTIPFDIEDLKKEAANLPPEDDDQWLDLSPDQLDQLLQEAVGKKESESVSKEEKEQNYDLTEVSESMKAFISKVSTHKGAELPREPSEAPITFDADSFLNYFDKILGPRPNESDSDDLDDEDFECLDSDDDLDFETHEPGEEASLKGTLDNLKSYMAQMDQELAHTCISKSFTTRNQVEPVSQTTDNNSDEEDSGTGESVMAPVDVDLNLVSNILESYSSQAGLAGPASNLLQSMGVQLPDNTDHRPTSKPTKN

Variants of: B1
Settings: with pihd1_human PIH1D1, Q9NWS0
Sequence of pihd1_human PIH1D1, Q9NWS0 (Q9NWS0 whole entry): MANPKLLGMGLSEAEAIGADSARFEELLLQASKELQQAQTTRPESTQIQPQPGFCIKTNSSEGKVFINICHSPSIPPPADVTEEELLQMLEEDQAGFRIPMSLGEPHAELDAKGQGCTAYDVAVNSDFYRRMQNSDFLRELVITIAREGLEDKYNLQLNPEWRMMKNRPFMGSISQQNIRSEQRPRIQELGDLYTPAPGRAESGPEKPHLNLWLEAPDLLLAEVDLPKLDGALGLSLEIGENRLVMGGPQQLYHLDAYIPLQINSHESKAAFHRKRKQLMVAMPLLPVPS

Variant | effect of a mutation on the interaction
S503A;S505A;S518A;S572A;S579A;S584A | disrupting interaction
S503D;S505D;S518D;S572D;S579D;S584D | disrupting interaction
S503A;S505A;S518A | disrupting interaction

Source: IntAct's records for PubMed 26711270
